According to the supplement of paper PMC9112550, “Optimization of the antimicrobial peptide Bac7 by deep mutational scanning” (BMC Biology, 2022):

Each sequence was assayed on Escherichia coli TOP10 (assay: shrunken log2 fold change of peptide-encoding DNA abundance (4.5 h post-induction vs induction); higher = less antimicrobial activity (less host growth inhibition)). Details: time post-induction: 4.5 h; library: site-saturation at positions 5, 18, 19, 20.
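Note: peptides expressed intracellularly from a pBAD plasmid library in pooled LB shake-flask culture, induced with 0.3% L-arabinose, DNA abundance read by NGS, three biological replicates, DESeq2 with apeglm shrinkage.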

In order of falling “shrunken log2 fold change” value:
1. RRIRSRPPRLPRPRPRPVPMPRP  1.32
2. RRIRGRPPRLPRPRPRPPEWPRP  1.13
3. RRIRKRPPRLPRPRPRPELRPRP  1.12
4. RRIRMRPPRLPRPRPRPGRCPRP  1.02
5. RRIRRRPPRLPRPRPRPPHVPRP  0.915
6. RRIRFRPPRLPRPRPRPPRRPRP  0.826
7. RRIRGRPPRLPRPRPRPRLVPRP  0.725
8. RRIRPRPPRLPRPRPRPTAPPRP  0.528
9. RRIRHRPPRLPRPRPRPLPSPRP  0.393
10. RRIRVRPPRLPRPRPRPPIAPRP  0.322
11. RRIRARPPRLPRPRPRPKDTPRP  0.293
12. RRIRYRPPRLPRPRPRPEGEPRP  0.199
13. RRIRDRPPRLPRPRPRPVPRPRP  0.186
14. RRIRIRPPRLPRPRPRPKMLPRP  0.154
15. RRIRMRPPRLPRPRPRPVRMPRP  0.132
16. RRIRTRPPRLPRPRPRPNPQPRP  0.125
17. RRIRPRPPRLPRPRPRPKLEPRP  0.121
18. RRIRARPPRLPRPRPRPHLNPRP  0.102
19. RRIRQRPPRLPRPRPRPGVYPRP  0.0572
20. RRIRQRPPRLPRPRPRPKVLPRP  0.0378
21. RRIRFRPPRLPRPRPRPFDRPRP  0.0332
22. RRIRPRPPRLPRPRPRPYQTPRP  0.0331
23. RRIRSRPPRLPRPRPRPNKEPRP  0.0328
24. RRIRARPPRLPRPRPRPWLMPRP  0.0299
25. RRIRHRPPRLPRPRPRPKLPPRP  0.0191
26. RRIRFRPPRLPRPRPRPATVPRP  0.00554
27. RRIRIRPPRLPRPRPRPVKYPRP  -9.3e-05
28. RRIRERPPRLPRPRPRPVGHPRP  -0.000999
29. RRIRLRPPRLPRPRPRPTGDPRP  -0.00286
30. RRIRMRPPRLPRPRPRPINWPRP  -0.011
31. RRIRWRPPRLPRPRPRPRHVPRP  -0.0116
32. RRIRGRPPRLPRPRPRPFERPRP  -0.012
33. RRIRFRPPRLPRPRPRPICEPRP  -0.0168
34. RRIRKRPPRLPRPRPRPNAKPRP  -0.0195
35. RRIRIRPPRLPRPRPRPKALPRP  -0.0211
36. RRIRYRPPRLPRPRPRPCKKPRP  -0.0222
37. RRIRLRPPRLPRPRPRPYGMPRP  -0.0242
38. RRIRYRPPRLPRPRPRPGNYPRP  -0.0361
39. RRIRIRPPRLPRPRPRPLKGPRP  -0.0404
40. RRIRPRPPRLPRPRPRPLVKPRP  -0.0409
41. RRIRDRPPRLPRPRPRPMFHPRP  -0.0543
42. RRIRNRPPRLPRPRPRPHMCPRP  -0.0575
43. RRIRARPPRLPRPRPRPHSGPRP  -0.0576
44. RRIRVRPPRLPRPRPRPWPAPRP  -0.0676
45. RRIRPRPPRLPRPRPRPHLHPRP  -0.0768
46. RRIRTRPPRLPRPRPRPTNGPRP  -0.0801
47. RRIRPRPPRLPRPRPRPCKQPRP  -0.0806
48. RRIRARPPRLPRPRPRPQQGPRP  -0.0917
49. RRIRHRPPRLPRPRPRPKMAPRP  -0.0953
50. RRIRQRPPRLPRPRPRPCVSPRP  -0.107
51. RRIRARPPRLPRPRPRPIVLPRP  -0.121
52. RRIRIRPPRLPRPRPRPSLKPRP  -0.154
53. RRIRVRPPRLPRPRPRPNVKPRP  -0.159
54. RRIRARPPRLPRPRPRPCKIPRP  -0.165
55. RRIRCRPPRLPRPRPRPYNMPRP  -0.188
56. RRIRLRPPRLPRPRPRPHAEPRP  -0.203
57. RRIRYRPPRLPRPRPRPMIVPRP  -0.209
58. RRIRFRPPRLPRPRPRPMGPPRP  -0.238
59. RRIRCRPPRLPRPRPRPWLYPRP  -0.246
60. RRIRCRPPRLPRPRPRPCEVPRP  -0.251
61. RRIRFRPPRLPRPRPRPACMPRP  -0.263
62. RRIRIRPPRLPRPRPRPNLLPRP  -0.309
63. RRIRYRPPRLPRPRPRPDNTPRP  -0.325
64. RRIRHRPPRLPRPRPRPNSQPRP  -0.346
65. RRIRLRPPRLPRPRPRPFCPPRP  -0.355
66. RRIRERPPRLPRPRPRPSIEPRP  -0.37
67. RRIRPRPPRLPRPRPRPSFMPRP  -0.377
68. RRIRCRPPRLPRPRPRPDRNPRP  -0.397
69. RRIRFRPPRLPRPRPRPWDTPRP  -0.421
70. RRIRIRPPRLPRPRPRPFNLPRP  -0.496
71. RRIRERPPRLPRPRPRPLILPRP  -0.574
72. RRIRDRPPRLPRPRPRPSYSPRP  -0.581
73. RRIRQRPPRLPRPRPRPHHCPRP  -0.652
74. RRIRYRPPRLPRPRPRPVLMPRP  -0.83
75. RRIRYRPPRLPRPRPRPNNEPRP  -1.27
